The chains are these.
B1: peptide-Alkaline phosphatase-His6 fusion protein of clone 6 (other)
chain: AECEWPWLTLELCQSTPEMPVLENRAAQGDITTPGGARRLTGDQTAALRDSLSDKPAKNIILLIGDGMGDSEITAARNYAEGAGGFFKGIDALPLTGQYTHYALNKKTGKPDYVTDSAASATAWSTGVKTYNGALGVDIHEKDHPTILEMAKAAGLATGNVSTAELQGATPAALVAHVTSRKCYGPSATSEKCPGNALEKGGKGSITEQLLNARADVTLGGGAKTFAETATAGEWQGKTLREQAQTRGYQLVSDAASLNSVTEANQQKPLLGLFADGNMPVRWLGPKATYHGNIDKPAVTCTPNPQRNDSVPTLAQMTDKAIELLSKNEKGFFLQVEGASIDKQNHAANPCGQIGETVDLDEAVQRALEFAKKEGNTLVIVTADHAHASQIVAPDTKAPGLTQALNTKDGAVMVMSYGNSEEDSQEHTGSQLRIAAYGPHAANVVGLTDQTDLFYTMKAALGLKVPGGSGGGSGGGSGGGSGTPEMPVLENRAAQGDITTPGGARRLTGDQTAALRDSLSDKPAKNIILLIGDGMGDSEITAARNYAEGAGGFFKGIDALPLTGQYTHYALNKKTGKPDYVTDSAASATAWSTGVKTYNGALGVDIHEKDHPTILEMAKAAGLATGNVSTAELQGATPAALVAHVTSRKCYGPSATSEKCPGNALEKGGKGSITEQLLNARADVTLGGGAKTFAETATAGEWQGKTLREQAQTRGYQLVSDAASLNSVTEANQQKPLLGLFADGNMPVRWLGPKATYHGNIDKPAVTCTPNPQRNDSVPTLAQMTDKAIELLSKNEKGFFLQVEGASIDKQNHAANPCGQIGETVDLDEAVQRALEFAKKEGNTLVIVTADHAHASQIVAPDTKAPGLTQALNTKDGAVMVMSYGNSEEDSQEHTGSQLRIAAYGPHAANVVGLTDQTDLFYTMKAALGLKVPGNSHHHHHH
notes: Tested as bacterial culture supernatant; also called peptide-AP fusion clone 6
B2: peptide-Alkaline phosphatase-His6 fusion protein of clone 9 (other)
chain: FTCAVYSLSELDCRDTPEMPVLENRAAQGDITTPGGARRLTGDQTAALRDSLSDKPAKNIILLIGDGMGDSEITAARNYAEGAGGFFKGIDALPLTGQYTHYALNKKTGKPDYVTDSAASATAWSTGVKTYNGALGVDIHEKDHPTILEMAKAAGLATGNVSTAELQGATPAALVAHVTSRKCYGPSATSEKCPGNALEKGGKGSITEQLLNARADVTLGGGAKTFAETATAGEWQGKTLREQAQTRGYQLVSDAASLNSVTEANQQKPLLGLFADGNMPVRWLGPKATYHGNIDKPAVTCTPNPQRNDSVPTLAQMTDKAIELLSKNEKGFFLQVEGASIDKQNHAANPCGQIGETVDLDEAVQRALEFAKKEGNTLVIVTADHAHASQIVAPDTKAPGLTQALNTKDGAVMVMSYGNSEEDSQEHTGSQLRIAAYGPHAANVVGLTDQTDLFYTMKAALGLKVPGGSGGGSGGGSGGGSGTPEMPVLENRAAQGDITTPGGARRLTGDQTAALRDSLSDKPAKNIILLIGDGMGDSEITAARNYAEGAGGFFKGIDALPLTGQYTHYALNKKTGKPDYVTDSAASATAWSTGVKTYNGALGVDIHEKDHPTILEMAKAAGLATGNVSTAELQGATPAALVAHVTSRKCYGPSATSEKCPGNALEKGGKGSITEQLLNARADVTLGGGAKTFAETATAGEWQGKTLREQAQTRGYQLVSDAASLNSVTEANQQKPLLGLFADGNMPVRWLGPKATYHGNIDKPAVTCTPNPQRNDSVPTLAQMTDKAIELLSKNEKGFFLQVEGASIDKQNHAANPCGQIGETVDLDEAVQRALEFAKKEGNTLVIVTADHAHASQIVAPDTKAPGLTQALNTKDGAVMVMSYGNSEEDSQEHTGSQLRIAAYGPHAANVVGLTDQTDLFYTMKAALGLKVPGNSHHHHHH
notes: Tested as bacterial culture supernatant; also called peptide-AP fusion clone 9
B3: peptide-Alkaline phosphatase-His6 fusion protein of clone 8 (other)
chain: PVCPSFCYDQYVCPTTPEMPVLENRAAQGDITTPGGARRLTGDQTAALRDSLSDKPAKNIILLIGDGMGDSEITAARNYAEGAGGFFKGIDALPLTGQYTHYALNKKTGKPDYVTDSAASATAWSTGVKTYNGALGVDIHEKDHPTILEMAKAAGLATGNVSTAELQGATPAALVAHVTSRKCYGPSATSEKCPGNALEKGGKGSITEQLLNARADVTLGGGAKTFAETATAGEWQGKTLREQAQTRGYQLVSDAASLNSVTEANQQKPLLGLFADGNMPVRWLGPKATYHGNIDKPAVTCTPNPQRNDSVPTLAQMTDKAIELLSKNEKGFFLQVEGASIDKQNHAANPCGQIGETVDLDEAVQRALEFAKKEGNTLVIVTADHAHASQIVAPDTKAPGLTQALNTKDGAVMVMSYGNSEEDSQEHTGSQLRIAAYGPHAANVVGLTDQTDLFYTMKAALGLKVPGGSGGGSGGGSGGGSGTPEMPVLENRAAQGDITTPGGARRLTGDQTAALRDSLSDKPAKNIILLIGDGMGDSEITAARNYAEGAGGFFKGIDALPLTGQYTHYALNKKTGKPDYVTDSAASATAWSTGVKTYNGALGVDIHEKDHPTILEMAKAAGLATGNVSTAELQGATPAALVAHVTSRKCYGPSATSEKCPGNALEKGGKGSITEQLLNARADVTLGGGAKTFAETATAGEWQGKTLREQAQTRGYQLVSDAASLNSVTEANQQKPLLGLFADGNMPVRWLGPKATYHGNIDKPAVTCTPNPQRNDSVPTLAQMTDKAIELLSKNEKGFFLQVEGASIDKQNHAANPCGQIGETVDLDEAVQRALEFAKKEGNTLVIVTADHAHASQIVAPDTKAPGLTQALNTKDGAVMVMSYGNSEEDSQEHTGSQLRIAAYGPHAANVVGLTDQTDLFYTMKAALGLKVPGNSHHHHHH
notes: Tested as bacterial culture supernatant; also called peptide-AP fusion clone 8
B4: peptide-Alkaline phosphatase-His6 fusion protein of clone 14 (other)
chain: VECDTPSITFSPGLEALFWNTCSPTPEMPVLENRAAQGDITTPGGARRLTGDQTAALRDSLSDKPAKNIILLIGDGMGDSEITAARNYAEGAGGFFKGIDALPLTGQYTHYALNKKTGKPDYVTDSAASATAWSTGVKTYNGALGVDIHEKDHPTILEMAKAAGLATGNVSTAELQGATPAALVAHVTSRKCYGPSATSEKCPGNALEKGGKGSITEQLLNARADVTLGGGAKTFAETATAGEWQGKTLREQAQTRGYQLVSDAASLNSVTEANQQKPLLGLFADGNMPVRWLGPKATYHGNIDKPAVTCTPNPQRNDSVPTLAQMTDKAIELLSKNEKGFFLQVEGASIDKQNHAANPCGQIGETVDLDEAVQRALEFAKKEGNTLVIVTADHAHASQIVAPDTKAPGLTQALNTKDGAVMVMSYGNSEEDSQEHTGSQLRIAAYGPHAANVVGLTDQTDLFYTMKAALGLKVPGGSGGGSGGGSGGGSGTPEMPVLENRAAQGDITTPGGARRLTGDQTAALRDSLSDKPAKNIILLIGDGMGDSEITAARNYAEGAGGFFKGIDALPLTGQYTHYALNKKTGKPDYVTDSAASATAWSTGVKTYNGALGVDIHEKDHPTILEMAKAAGLATGNVSTAELQGATPAALVAHVTSRKCYGPSATSEKCPGNALEKGGKGSITEQLLNARADVTLGGGAKTFAETATAGEWQGKTLREQAQTRGYQLVSDAASLNSVTEANQQKPLLGLFADGNMPVRWLGPKATYHGNIDKPAVTCTPNPQRNDSVPTLAQMTDKAIELLSKNEKGFFLQVEGASIDKQNHAANPCGQIGETVDLDEAVQRALEFAKKEGNTLVIVTADHAHASQIVAPDTKAPGLTQALNTKDGAVMVMSYGNSEEDSQEHTGSQLRIAAYGPHAANVVGLTDQTDLFYTMKAALGLKVPGNSHHHHHH
notes: Tested as bacterial culture supernatant; also called peptide-AP fusion clone 14
B5: peptide-Alkaline phosphatase-His6 fusion protein of clone 11 (other)
chain: HTCFYPTLMPPELCFDTPEMPVLENRAAQGDITTPGGARRLTGDQTAALRDSLSDKPAKNIILLIGDGMGDSEITAARNYAEGAGGFFKGIDALPLTGQYTHYALNKKTGKPDYVTDSAASATAWSTGVKTYNGALGVDIHEKDHPTILEMAKAAGLATGNVSTAELQGATPAALVAHVTSRKCYGPSATSEKCPGNALEKGGKGSITEQLLNARADVTLGGGAKTFAETATAGEWQGKTLREQAQTRGYQLVSDAASLNSVTEANQQKPLLGLFADGNMPVRWLGPKATYHGNIDKPAVTCTPNPQRNDSVPTLAQMTDKAIELLSKNEKGFFLQVEGASIDKQNHAANPCGQIGETVDLDEAVQRALEFAKKEGNTLVIVTADHAHASQIVAPDTKAPGLTQALNTKDGAVMVMSYGNSEEDSQEHTGSQLRIAAYGPHAANVVGLTDQTDLFYTMKAALGLKVPGGSGGGSGGGSGGGSGTPEMPVLENRAAQGDITTPGGARRLTGDQTAALRDSLSDKPAKNIILLIGDGMGDSEITAARNYAEGAGGFFKGIDALPLTGQYTHYALNKKTGKPDYVTDSAASATAWSTGVKTYNGALGVDIHEKDHPTILEMAKAAGLATGNVSTAELQGATPAALVAHVTSRKCYGPSATSEKCPGNALEKGGKGSITEQLLNARADVTLGGGAKTFAETATAGEWQGKTLREQAQTRGYQLVSDAASLNSVTEANQQKPLLGLFADGNMPVRWLGPKATYHGNIDKPAVTCTPNPQRNDSVPTLAQMTDKAIELLSKNEKGFFLQVEGASIDKQNHAANPCGQIGETVDLDEAVQRALEFAKKEGNTLVIVTADHAHASQIVAPDTKAPGLTQALNTKDGAVMVMSYGNSEEDSQEHTGSQLRIAAYGPHAANVVGLTDQTDLFYTMKAALGLKVPGNSHHHHHH
notes: Tested as bacterial culture supernatant; also called peptide-AP fusion clone 11
B6: peptide-Alkaline phosphatase-His6 fusion protein of clone 12 (other)
chain: SNCPPLDMRLTELCVMTPEMPVLENRAAQGDITTPGGARRLTGDQTAALRDSLSDKPAKNIILLIGDGMGDSEITAARNYAEGAGGFFKGIDALPLTGQYTHYALNKKTGKPDYVTDSAASATAWSTGVKTYNGALGVDIHEKDHPTILEMAKAAGLATGNVSTAELQGATPAALVAHVTSRKCYGPSATSEKCPGNALEKGGKGSITEQLLNARADVTLGGGAKTFAETATAGEWQGKTLREQAQTRGYQLVSDAASLNSVTEANQQKPLLGLFADGNMPVRWLGPKATYHGNIDKPAVTCTPNPQRNDSVPTLAQMTDKAIELLSKNEKGFFLQVEGASIDKQNHAANPCGQIGETVDLDEAVQRALEFAKKEGNTLVIVTADHAHASQIVAPDTKAPGLTQALNTKDGAVMVMSYGNSEEDSQEHTGSQLRIAAYGPHAANVVGLTDQTDLFYTMKAALGLKVPGGSGGGSGGGSGGGSGTPEMPVLENRAAQGDITTPGGARRLTGDQTAALRDSLSDKPAKNIILLIGDGMGDSEITAARNYAEGAGGFFKGIDALPLTGQYTHYALNKKTGKPDYVTDSAASATAWSTGVKTYNGALGVDIHEKDHPTILEMAKAAGLATGNVSTAELQGATPAALVAHVTSRKCYGPSATSEKCPGNALEKGGKGSITEQLLNARADVTLGGGAKTFAETATAGEWQGKTLREQAQTRGYQLVSDAASLNSVTEANQQKPLLGLFADGNMPVRWLGPKATYHGNIDKPAVTCTPNPQRNDSVPTLAQMTDKAIELLSKNEKGFFLQVEGASIDKQNHAANPCGQIGETVDLDEAVQRALEFAKKEGNTLVIVTADHAHASQIVAPDTKAPGLTQALNTKDGAVMVMSYGNSEEDSQEHTGSQLRIAAYGPHAANVVGLTDQTDLFYTMKAALGLKVPGNSHHHHHH
notes: Tested as bacterial culture supernatant; also called peptide-AP fusion clone 12

The target of the experiment is T1, soluble IGF1R (sIGF1R), extracellular domain of human insulin-like growth factor 1 receptor, carboxy-terminal … (human, UniProt P08069 31-932).
T1 construct: Bought from R&D Systems; GenBank NP-000866 is printed for the whole receptor; also called IFG1R
The experiment can be described thus: ELISA, culture supernatant on 2 µg/ml coated sIGF1R, Attophos detection. As for the experimental part:
The binding of purified peptide-AP fusion proteins to sIGF1R was assessed using ELISA against immobilized sIGF1R. Briefly, bacteria transformed with each peptide-AP fusion expression vector were grown overnight and the following day the cultures were clarified by centrifugation at 4,500 rpm, 4° C. The supernatants were collected and 75 μl of each supernatant was assayed for binding to 2 μg/ml sIGF1R immobilized on ELISA plates. The bound peptides were detected using the Attophos Substrate (Roche, Indianapolis, Ind.) following the manufacturer's recommendation and read using a Molecular Devices M5 plate reader.
Take B1: the binding result is reported as “binds”.

As for B2, the binding result was “binds”.

On to B3, for which the binding result was “binds”.

Turning to B4, the binding result was “binds”.

As to B5, the binding result is listed as “binds”.

Consider B6, for which the binding result is on record as “binds”.

The values above are taken from patent US20110294748A1 (Janssen / Centocor, published 2011).
